Data taken from patent US20030036699A1, “Methods and systems which use annexin for bioprofiling body lumen” (IMETRx, Inc., priority 2001, published 2003).
Several values for one entry are separate records, joined by “and”; a condition that tells them apart may be missing. Equal entries are not always repeated.

B1: annexin V-^99mTc (protein, UniProt P08758 2-320, looked up)
Annexin A5: AQVLRGTVTDFPGFDERADAETLRKAMKGLGTDEESILTLLTSRSNAQRQEISAAFKTLFGRDLLDDLKSELTGKFEKLIVALMKPSRLYDAYELKHALKGAGTNEKVLTEIIASRTPEELRAIKQVYEEEYGSSLEDDVVGDTSGYYQRMLVVLLQANRDPDAGIDEAQVEQDAQALFQAGELKWGTDEEKFITIFGTRSVSHLRKVFDKYMTISGFQIEETIDRETSGNLEQLLLAVVKSIRSIPAYLAETLYYAMKGAGTDDHTLIRVMVSRSEIDLFNIRKEFRKNFATSLYSMIKGDTSGDYKKALLLLCGEDD
modifications: technetium-99m label
notes: Annexin V, a human protein (36 kD) of 319 amino acids, radiolabeled with technetium-99m as tracer

Test system: injured iliac vessel (arterial lesions)
Experiment: Tracer uptake by autoradiography of harvested aorta/iliac in balloon-injured, cholesterol-fed rabbits
Assay type: in vivo, rabbit
Details: for Figure of Merit (FOM): FOM=3(AUR)(PUR)(PBR); for Peak Uptake Ratio (PUR): peak lesion uptake vs uninjured zone, autoradiograph after single IV tracer dose; for Average Uptake Ratio (AUR): ratio of uptake in injured vs uninjured iliac vessel, autoradiograph about 2.5 h after single IV tracer dose
Protocol: Twenty-one adult male rabbits (weighing 3-4 kg at the time of tracer administration) were each were fed a high cholesterol, high fat diet for one week. Following one week of feeding, the rabbits were heparinized, anesthetized with ketamine HCI (25 mg/kg, IM) and medetomidine (0.5 mg/kg, IM), and underwent a left carotid arteriotomy. A 3-4F Fogarty catheter was advanced through the arteriotomy under fluoroscopic guidance into the right iliac artery. The Fogarty balloon was inflated with 0.4-0.75 ml of contrast media (to assist with localization by fluoroscopy) and withdrawn to the level of diaphragm. The balloon was deflated, the catheter returned to the distal iliac under fluoroscopic guidance, and the process repeated. There were six repetitions of the procedure. The neck incision was closed, and the animals received Baytril (5 mg IM) for 3 days following surgery to minimize infection. The animals were allowed to recover for four additional weeks while the high fat/high cholesterol diet was continued. The rabbits were divided into seven groups of […] each. On the day of study, a blood sample was drawn to measure lipids (cholesterol), and two groups of three animals received a single tracer dose intravenously via a marginal ear vein. The first group of three rabbits received annexin V-^99mTc.
Two hours after the radiopharmaceutical was administered, the animals were injected with Evans blue to identify the areas of injury an re-endothelialized aorta and iliac vessel. Thirty minutes later, the animals were anesthetized with sodium pentothal (35 mg/kg, IV) and, a thoracotomy and a midline laporotomy incision were performed. The left ventricle was identified, a trocar placed in the chamber, and a cannula placed in the abdominal aorta. The rabbit was partially exsanguinated, followed by infusion of 100 mL lactated Ringer's solution, and subsequently perfused with 0.4% paraformaldehyde (PFA) for about 5 min at about 100 mmHg pressure.
Following euthanasia, the aorta was harvested, photographed (SONY Mavica) and autoradiographed (Molecular Dynamics). An aliquot of blood and an aliquot of the injected dose were included on the plate to permit quantification. The autoradiographs were compared to the Evans Blue stained specimen to determine where the tracer had localized with reference to the injury. A ratio between uptake in the injured and uninjured iliac vessel was determined (average uptake ratio) using analysis option of ‘Image Quest^1.’ Additional ratios were created using the average counts in regions of interest placed over the area with peak uptake on the autoradiograph with each agent, and a ratio of peak uptake to the activity in an aliquot blood were determined.
To simplify the process of integrating the information, a Figure of Merit was calculated, using the formula: […]

Molecule	Figure of Merit (FOM)	activity in injured iliac vessel relative to uninjured site (animals 1 and 3)	Peak Uptake Ratio (PUR)	Average Uptake Ratio (AUR)	localization of tracer on the autoradiograph relative to lesion sites (autoradiograph compared with Evans Blue stained specimen)	Peak to Blood Ratio (PBR) (peak lesion uptake vs activity in an aliquot of blood)
albumin-^125I [reference compound]	14	3 fold	5.1 and 5.2	3.0	–	–
B1	1701	–	15	8.4	striking correlation between lesion sites and localization of annexin	4.5
